Measurements published in US20260209357A1 (CSL INNOVATION, published 2026).

Assays:
[1] = biological target: T1, biotinylated human FcRn/β2m (human, UniProt P55899 24-297; P61769 21-119, biotinylated (Biotin-NHS amine chemistry or BirA biotin ligase; site not stated)); test: SPR, surface-bound huFcRn/b2m, pH 7.3
T1 construct: The soluble human FcRn/β2m after biotinylation, tethered on streptavidin or neutravidin chips; also called surface-captured biotinylated human FcRn complexed with β2m

[2] = biological target: T2, soluble recombinant human FcRn/β2m (human, UniProt P55899 24-297; P61769 21-119); test: SPR, ligand on surface, soluble HuFcRn/b2m as analyte; pH not printed with the table (paragraph 351 speaks of pH 6.0)
T2 construct: About 42 kDa; also called HuFcRn/b2m; huFcRn/b2m
T2 sequence (P55899 24-297 limits assumed, chain 1 of 2): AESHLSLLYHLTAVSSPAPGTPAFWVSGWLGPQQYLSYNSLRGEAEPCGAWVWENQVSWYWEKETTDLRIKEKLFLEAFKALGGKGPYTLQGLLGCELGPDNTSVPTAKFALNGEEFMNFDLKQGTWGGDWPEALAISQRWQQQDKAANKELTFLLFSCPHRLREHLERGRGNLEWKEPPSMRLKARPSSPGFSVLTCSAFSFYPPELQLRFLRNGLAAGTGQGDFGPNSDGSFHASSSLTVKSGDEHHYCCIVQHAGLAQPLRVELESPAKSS
T2 sequence (P61769 21-119 limits assumed, chain 2 of 2): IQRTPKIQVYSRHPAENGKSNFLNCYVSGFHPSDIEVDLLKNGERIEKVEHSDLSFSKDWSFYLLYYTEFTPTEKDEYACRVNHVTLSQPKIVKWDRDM

[3] = biological target: T1, biotinylated human FcRn/β2m; test: SPR, biotinylated FcRn/β2m on streptavidin or neutravidin chip, antagonist as analyte (avidity conditions), pH 7.3
[4] = biological target: T1, biotinylated human FcRn/β2m; test: SPR, biotinylated FcRn/β2m on streptavidin or neutravidin chip, antagonist as analyte (avidity conditions), pH 7.3; column head printed ka (1/s)
Human IgG1 Fc (huG1Fc) = biological target: T3, Human IgG1 Fc (huG1Fc) (human, UniProt P0DOX5 218-449 = IgG part); test: SPR, ligand directly immobilised, soluble Fcγ receptor as analyte, pH 7.3
T3 construct: Wild-type Fc control, directly immobilised on the chip; also called G1Fc homodimer

T1 sequence (P55899 24-297 limits assumed, chain 1 of 2): as the sequence (P55899 24-297 limits assumed, chain 1 of 2) above
T1 sequence (P61769 21-119 limits assumed, chain 2 of 2): as the sequence (P61769 21-119 limits assumed, chain 2 of 2) above

Binder | Kd [3] [nM] | kon [3] [M⁻¹ s⁻¹] | koff [4] [s⁻¹] | other results
Vyvgart (other, also called Efgartigimod; commercially available Vyvgart product) DKTHTCPPCPAPELLGGPSVFLFPPKPKDTLYITREPEVTCVVVDVSHEDPEVKFNWYVDGVEVHNAKTKPREEQYNSTYRVVSVLTVLHQDWLNGKEYKCKVSNKALPAPIEKTISKAKGQPREPQVYTLPPSRDELTKNQVSLTCLVKGFYPSDIAVEWESNGQPENNYKTTPPVLDSDGSFFLYSKLTVDKSRWQQGNVFSCSVMHEALKFHYTQKSLSLSPGK | – | – | – | Kd [1]: 2.3 nM
huG1FcYPY (other, Fc fragment alone; also called G1FcYPY homodimer) EPKSCDKTHTCPPCPAPELLGGPSVFLFPPKPKDTLYISRTPEVTCVVVDVSHEDPEVKFNWYVDGVEVHNAKTKPREEQYNSTYRVVSVLTPLHQDWLNGKEYKCKVSNKALPAPIEKTISKAKGQPREPQVYTLPPSRDELTKNQVSLTCLVKGFYPSDIAVEWESNGQPENNYKTTPPVLDSDGSFFLYSKLTVDKSRWQQGNVFSCSVMHEALHYHYTQKSLSLSPGK | 1.1 | 492000 | 0.000532 | Kd [2]: 16.9 nM; koff [2]: 0.00525 s⁻¹; kon [2]: 311000 M⁻¹ s⁻¹
huG1FcYTEKF (other, Human IgG1 Fc with M252Y, S254T, T256E, H433K, N434F, modelled on efgartigimod with five more N-terminal residues (EPKSC); Fc dimer is to be expected; also called benchmark molecule) EPKSCDKTHTCPPCPAPELLGGPSVFLFPPKPKDTLYITREPEVTCVVVDVSHEDPEVKFNWYVDGVEVHNAKTKPREEQYNSTYRVVSVLTVLHQDWLNGKEYKCKVSNKALPAPIEKTISKAKGQPREPQVYTLPPSRDELTKNQVSLTCLVKGFYPSDIAVEWESNGQPENNYKTTPPVLDSDGSFFLYSKLTVDKSRWQQGNVFSCSVMHEALKFHYTQKSLSLSPGK | 2.4 | 970000 | 0.00236 | –
human FcγRI (CD64) (receptor, UniProt P12314 16-292, looked up, extracellular domain; also called FcyRI (CD64)) QVDTTKAVITLQPPWVSVFQEETVTLHCEVLHLPGSSSTQWFLNGTATQTSTPSYRITSASVNDSGEYRCQRGLSGRSDPIQLEIHRGWLLLQVSSRVFTEGEPLALRCHAWKDKLVYNVLYYRNGKAFKFFHWNSNLTILKTNISHNGTYHCSGMGKHRYTSAGISVTVKELFPAPVLNASVTSPLLEGNLVTLSCETKLLLQRPGLQLYFSFYMGSKTLRGRNTSSEYQILTARREDSGLYWCEAATEDGNVLKRSPELELQVLGLQLPTPVWFH | – | – | – | Kd (Human IgG1 Fc (huG1Fc)): 0.086 nM
